Columns and labels:
7-DMATS = target: T1, 7-DMATS (Aspergillus fumigatus, UniProt Q4WYG3); test: LCMS prenylation assay, conversion yield; type: biochemical; conditions: 1 mM substrate; 1 mM DMAPP; 5 mM CaCl2; 4 µg protein in 50 µL; pH 7.5; 37 °C; 16 h; C6- and C7-prenylation
T1 construct: gene etpPT; 7-DMATS-His6 (C-terminal tag kept), plasmid pLW40, expressed in E. coli, Ni-NTA purified
T1 sequence (Q4WYG3 1-472): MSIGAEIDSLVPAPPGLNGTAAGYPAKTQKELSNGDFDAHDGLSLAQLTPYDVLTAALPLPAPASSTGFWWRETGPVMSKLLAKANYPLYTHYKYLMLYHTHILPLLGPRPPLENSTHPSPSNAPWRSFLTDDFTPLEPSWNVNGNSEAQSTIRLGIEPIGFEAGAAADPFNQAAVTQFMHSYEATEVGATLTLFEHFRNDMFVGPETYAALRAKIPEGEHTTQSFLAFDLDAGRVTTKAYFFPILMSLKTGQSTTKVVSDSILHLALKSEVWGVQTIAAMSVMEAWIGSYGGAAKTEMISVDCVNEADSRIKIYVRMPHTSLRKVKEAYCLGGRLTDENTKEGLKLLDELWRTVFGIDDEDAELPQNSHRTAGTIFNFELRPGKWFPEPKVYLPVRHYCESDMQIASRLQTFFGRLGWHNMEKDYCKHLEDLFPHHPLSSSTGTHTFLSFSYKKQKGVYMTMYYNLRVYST

6-DMATSSa = target: T2, 6-DMATSSa (Streptomyces ambofaciens, UniProt A3KIV6); test: LCMS prenylation assay, conversion yield; type: biochemical; conditions: 1 mM substrate; 1 mM DMAPP; 5 mM CaCl2; 4 µg protein in 50 µL; pH 7.5; 37 °C; 16 h; C6-prenylation
T2 construct: gene SAM23877_0730; 6-DMATSSa-His6 (C-terminal tag kept), plasmid pJW12, expressed in E. coli, Ni-NTA purified
T2 sequence (A3KIV6 1-375): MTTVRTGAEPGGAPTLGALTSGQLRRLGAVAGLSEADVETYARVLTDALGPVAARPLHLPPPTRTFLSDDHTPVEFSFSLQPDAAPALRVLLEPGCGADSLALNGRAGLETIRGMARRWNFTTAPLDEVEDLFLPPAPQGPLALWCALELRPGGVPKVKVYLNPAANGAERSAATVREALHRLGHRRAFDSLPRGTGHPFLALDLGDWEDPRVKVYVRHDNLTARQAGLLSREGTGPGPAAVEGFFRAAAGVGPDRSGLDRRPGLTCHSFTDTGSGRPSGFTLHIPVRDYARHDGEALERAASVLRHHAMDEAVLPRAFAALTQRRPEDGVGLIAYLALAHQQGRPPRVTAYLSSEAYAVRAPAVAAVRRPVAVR

[1] = substrate: CC(C)=CCc1ccc2c(C[C@@H]3NC(=O)[C@@H]4CCCN4C3=O)c[nH]c2c1; test: HPLC prenylation assay, Michaelis-Menten fit; type: biochemical, Aspergillus ruber; conditions: 1 mM DMAPP, pH 7.5, 37 °C, 30 min, N1-prenylation
Description: (§1) HPLC prenylation assay, Michaelis-Menten fit on EchPT1

[2] = substrate: CC(C)=CCc1ccc2[nH]cc(C[C@@H]3NC(=O)[C@@H]4CCCN4C3=O)c2c1; test: HPLC prenylation assay, Michaelis-Menten fit; type: biochemical, Aspergillus ruber; conditions: 1 mM DMAPP, pH 7.5, 37 °C, 35 min
Description: as §1

[3] = substrate: CC(C)=CCc1cccc2[nH]cc(C[C@@H]3NC(=O)[C@@H]4CCCN4C3=O)c12; test: HPLC prenylation assay, Michaelis-Menten fit; type: biochemical, Aspergillus ruber; conditions: 1 mM DMAPP, pH 7.5, 37 °C, 30 min
Description: as §1

[4] = substrate: CC(C)=CCOP(=O)(O)OP(=O)(O)O; test: HPLC prenylation assay, Michaelis-Menten fit; type: biochemical, Aspergillus ruber; conditions: 1 mM C4-prenylated cyclo-L-Trp-L-Pro (3), 5 mM CaCl2, pH 7.5, 37 °C, 30 min
Description: as §1

## O=C1N[C@@H](Cc2c[nH]c3ccccc23)C(=O)N2CCC[C@@H]12 [compound 1, cyclo-L-Trp-L-Pro]
7-DMATS
  conversion yield: 11.6 ± 1.4%
6-DMATSSa
  conversion yield: 29.9 ± 0.6%

B1: EchPT1 (Aspergillus ruber) (protein)
chain: MPSEVLTSYYDYPTHDQEAWWRDTGPLFGRFLKGAGYDVHTQYQYLVFFIKNILPSLGPYPARWRSTITPTGLPIEYSLNFQLNSRPLLRIGFEPLSRFSGTPQDPYNKIAAADLLNQLSKLQLHEFDTQLFNHFTNEFELSKSESESLQKQGGINGKSTVRSQTAFGFDLKGGRVAVKGYAFAGLKNRATGTPVGQLISNSIRNLEPQMHCWDSFSILNSYMEESDGWNEYSFVSWDCVDIERSRLKLYGVHNAVTWDKVKEMWTLGGRIENNATIKTGLELLQHMWSLLQINEGDRDYKGGFAADNGGKTLPIIWNYELNKGSPHPAPKFYFPVHGENDLQVSKSISEFFTHLGWQDHARQYPHLLRQIYPNQNISQTERLQAWISFAYNERTGPYLSVYYYSAERPPWGSDQVK
notes: His6-EchPT1 (N-terminal tag kept), plasmid pVW90, expressed in E. coli, Ni-NTA purified
[1]
  Km: 50 ± 7 µM
  kcat: 0.007 ± 0.0004 s⁻¹
  kcat/Km: 140 M⁻¹ s⁻¹
[2]
  Km: 80 ± 20 µM
  kcat: 0.03 ± 0.004 s⁻¹
  kcat/Km: 375 M⁻¹ s⁻¹
[3]
  Km: 60 ± 10 µM
  kcat: 0.21 ± 0.02 s⁻¹
  kcat/Km: 3500 M⁻¹ s⁻¹
[4]
  Km: 100 ± 10 µM
  kcat: 0.25 ± 0.02 s⁻¹
  kcat/Km: 2500 M⁻¹ s⁻¹

From publication PMC9750918, “Diprenylated cyclodipeptide production by changing the prenylation sequence of the nature’s synthetic machinery” (Applied Microbiology and Biotechnology, 2022)
